{"source": "patent US20050048073A1", "about": "“Methods of determining west nile virus epitopes and method of using the same” (priority 2001, published 2005)", "target": "HLA B*07 (Homo sapiens, UniProt P01889)", "experiment": "T2B7 binding assay (stabilization of HLA B*07 on TAP-deficient T2 cells, FACS)", "conditions": "for Avg. Fold Inc. @ 200: fold increase over background; for Avg. Fold Inc. @ 200 / Avg. MFI 200: peptide at 200 ug/ml; for Avg. MFI 200: mean fluorescence index; for Binding number (binding score): numerical sum of all the positive assays; for Binding strength: rated strong, moderate, weak or none by number of significantly positive wells", "method": "Triplicate wells of peptide at 10, 20, 200 ug/ml were evaluated in each of the T2 B7 binding assays; each assay was repeated 4 times. […] The “binding score” column provides the numerical sum of all the positive assays in the binding summary column.\nThe T2B7 binding assay method is well described in the literature and operational in the laboratory. This assay relies on the ability of exogenously added peptides to stabilize the class I MHC/beta 2 microglobulin structure on the surface of transporters associated with antigen processing (TAP)-deficient cell lines. Briefly, HLA B*07 T2 cell lines were prepared by incubating overnight (16 hours) at 26° C. Just prior to the binding assay these cells were washed twice in serum-free media. Solutions of the test peptides at three concentrations (final concentration of 10, 20, and 200 ug/ml in RPMI 1640 (Sigma, St. Louis, Mo.)) were plated in triplicate wells of a 96 well, round-bottom assay plate (Beckton Dickinson, Lincoln Park, N.J.). Sixteen wells containing cells without peptide were included in each plate, serving as the no-peptide control (background control) for the assay.\n100,000 cells were added to each well, and the plates were then incubated for four hours at 37° C., 5% CO2 The plates were then spun at 110×g for 10 minutes at 4° C., supernatant is discarded and the remaining cells are re-suspended. One hundred uL of diluted primary antibody-containing hybridoma supernatant (1:10 dilution of ME1 supernatant produced by HB-119 cell line from ATCC) in staining buffer (PBS, 5% FBS, 0.1% sodium azide) was added to all of the wells except 8 wells per assay plate (each containing 200 ug/ml of one study peptide, these wells served as controls for non-specific binding of secondary antibody). Primary antibody was incubated with the peptide-pulsed cells for 30 minutes at 4° C. After washing three times, the cells were re-suspended, and 100 uL of a 1:250 dilution of FITC-labeled secondary antibody (FITC labeled Goat F(ab′)2 Anti-mouse IgG (H+L) from Caltag) in staining buffer were added to all wells. The plates were incubated for 30 minutes at 4° C., and subsequently washed three times. The contents of each well were then resuspended in 200 uL of fixing buffer (PBS, 1% paraformaldehyde), and aliquoted into FACS tubes.\nThe 16 negative control wells in each plate contained no peptide but did contain cells, primary antibody and secondary antibody. An additional set of triplicate wells was plated with peptide at the highest concentration (200 ug/ml), but no primary antibody was added to the wells to control for non-specific secondary antibody binding. One positive control peptide (the known B*07 binder) was tested at three concentrations (in triplicate wells) in each assay plate.\nFollowing fixing, the presence of fluorescent secondary antibody on the surface of T2 cells (gated to the appropriate cell size) was measured at 488 nm on a FACScan flow cytometer (Becton-Dickinson, New Jersey). The mean linear fluorescence […] of 10,000 events was measured and compared to the background fluorescence of cells plated in (no peptide) control wells. A positive response was defined as a 10% increase over baseline MLF and p<0.05, in more than one concentration in each of four assays. The assays are repeated 4 times for each concentration of peptide. Each peptide was tested in a total of 36 wells (triplicate wells, three concentrations, four assays).", "note": "Where “and” joins values, the source holds several entries; their conditions need not be identical. Equal entries are not always repeated."}
{"sequence": "APAYSFNCLG [WNB7 005]", "values": [{"measurement": "Avg. Fold Inc. @ 200", "value": 1.2}, {"measurement": "Avg. MFI 200", "value": 743.5}, {"measurement": "Binding number (binding score)", "setting": "listed as 0005", "value": 8}, {"measurement": "Binding number (binding score)", "setting": "listed as WNVB7 0005", "value": 8}, {"measurement": "Binding strength", "setting": "listed as WNVB7 0005", "value": "moderate (stabilized HLA B*07 to a moderate degree (receiving binding scores of 6 to 8))"}]}
{"sequence": "AVKDELNTLL [WNB7 004]", "values": [{"measurement": "Avg. Fold Inc. @ 200", "value": 1.0}, {"measurement": "Avg. MFI 200", "value": 842.5}, {"measurement": "Binding number (binding score)", "value": 0}, {"measurement": "Binding strength", "value": "non-binder (did not bind (binding score of 2))"}]}
{"sequence": "EPPEGVKYVL [WNB7 013]", "values": [{"measurement": "Avg. Fold Inc. @ 200", "value": 1.1}, {"measurement": "Avg. MFI 200", "value": 681.7}, {"measurement": "Binding number (binding score)", "setting": "listed as WNVB7 0013", "value": 6}, {"measurement": "Binding strength", "setting": "listed as WNVB7 0013", "value": "moderate (stabilized HLA B*07 to a moderate degree (receiving binding scores of 6 to 8))"}]}
{"sequence": "GPGHEEPQLV [WNB7 011]", "values": [{"measurement": "Avg. Fold Inc. @ 200", "value": 1.0}, {"measurement": "Avg. MFI 200", "value": 848.9}, {"measurement": "Binding number (binding score)", "value": 2}, {"measurement": "Binding strength", "value": "non-binder (did not bind (binding score of 2))"}]}
{"sequence": "GPGHKARVLA [HIV-1 B7 1291, reference compound]", "values": [{"measurement": "Avg. Fold Inc. @ 200", "value": "2.2 and 1.5 and 1.6"}, {"measurement": "Avg. MFI 200", "value": "1423.8 and 1370.9 and 1003.9"}, {"measurement": "Binding number (binding score)", "value": "8 and 9"}, {"measurement": "Binding number (binding score)", "setting": "listed as WC 1291", "value": "eight to nine"}, {"measurement": "Binding strength", "value": "moderate (stabilized HLA B*07 to a moderate degree (receiving binding scores of 6 to 8))"}, {"measurement": "Binding strength", "setting": "listed as WC 1291", "value": "moderately well"}]}
{"sequence": "IPAGFEPEML [WNB7 008]", "values": [{"measurement": "affinity to B*07 in vitro compared with previously published B*07 epitope GPGHKARVLA (from HIV-1)", "value": "much greater affinity"}, {"measurement": "Avg. Fold Inc. @ 200", "value": 1.9}, {"measurement": "Avg. MFI 200", "value": 1207.4}, {"measurement": "Binding number (binding score)", "value": 10}, {"measurement": "Binding strength", "value": "strong (stabilized HLA B7 on the surface of T2B7 cells at more than two concentrations in all four replicate assays, receiving a total binding score of 10, 11, 11, 12, and 12)"}]}
{"sequence": "KPTGSASSLV [WNB7 015]", "values": [{"measurement": "Avg. Fold Inc. @ 200", "value": 1.7}, {"measurement": "Avg. MFI 200", "value": 1070.2}, {"measurement": "Binding number (binding score)", "setting": "listed as WNVB7 0015", "value": 6}, {"measurement": "Binding strength", "setting": "listed as WNVB7 0015", "value": "moderate (stabilized HLA B*07 to a moderate degree (receiving binding scores of 6 to 8))"}]}
{"sequence": "NPMILAAGLI [WNB7 007]", "values": [{"measurement": "Avg. Fold Inc. @ 200", "value": 1.1}, {"measurement": "Avg. MFI 200", "value": 944.6}, {"measurement": "Binding number (binding score)", "value": 2}, {"measurement": "Binding strength", "value": "non-binder (did not bind (binding score of 2))"}]}
{"sequence": "PEDIDCWCTK [WNVB7 3399]", "values": [{"measurement": "stabilization of HLA B*07 on the surface of T2B7 cells", "value": "did not stabilize T2B7 to a significant degree"}, {"measurement": "Avg. Fold Inc. @ 200", "value": 1.1}, {"measurement": "Avg. MFI 200", "value": 990.3}, {"measurement": "Binding number (binding score)", "value": 1}, {"measurement": "Binding strength", "value": "non-binder (did not bind (binding score of 2))"}]}
{"sequence": "PETPQGLAKI [WNVB7 3403]", "values": [{"measurement": "stabilization of HLA B*07 on the surface of T2B7 cells", "value": "did not stabilize T2B7 to a significant degree"}, {"measurement": "Avg. Fold Inc. @ 200", "value": 1.0}, {"measurement": "Avg. MFI 200", "value": 588.9}, {"measurement": "Binding number (binding score)", "value": 0}, {"measurement": "Binding strength", "value": "non-binder (did not bind (binding score of 2))"}]}
{"sequence": "PFPESNSPIS [WNVB7 3411]", "values": [{"measurement": "stabilization of HLA B*07 on the surface of T2B7 cells", "value": "did not stabilize T2B7 to a significant degree"}, {"measurement": "Avg. Fold Inc. @ 200", "value": 1.0}, {"measurement": "Avg. MFI 200", "value": 626.7}, {"measurement": "Binding number (binding score)", "value": 1}, {"measurement": "Binding strength", "value": "non-binder (did not bind (binding score of 2))"}]}
{"sequence": "PRTNTILEDN [WNVB7 3415]", "values": [{"measurement": "stabilization of HLA B*07 on the surface of T2B7 cells", "value": "did not stabilize T2B7 to a significant degree"}, {"measurement": "Avg. Fold Inc. @ 200", "value": 0.9}, {"measurement": "Avg. MFI 200", "value": 778.6}, {"measurement": "Binding number (binding score)", "value": 0}, {"measurement": "Binding strength", "value": "non-binder (did not bind (binding score of 2))"}]}
{"sequence": "RPAADGRTVM [WNB7 023]", "values": [{"measurement": "affinity to B*07 in vitro compared with previously published B*07 epitope GPGHKARVLA (from HIV-1)", "value": "much greater affinity"}, {"measurement": "Avg. Fold Inc. @ 200", "value": 1.5}, {"measurement": "Avg. MFI 200", "value": 979.1}, {"measurement": "Binding number (binding score)", "value": 12}, {"measurement": "Binding strength", "value": "strong (stabilized HLA B7 on the surface of T2B7 cells at more than two concentrations in all four replicate assays, receiving a total binding score of 10, 11, 11, 12, and 12)"}]}
{"sequence": "RPQRHDEKTL [WNB7 019]", "values": [{"measurement": "affinity to B*07 in vitro compared with previously published B*07 epitope GPGHKARVLA (from HIV-1)", "value": "much greater affinity"}, {"measurement": "Avg. Fold Inc. @ 200", "value": 2.8}, {"measurement": "Avg. MFI 200", "value": 1644.6}, {"measurement": "Binding number (binding score)", "value": 11}, {"measurement": "Binding strength", "value": "strong (stabilized HLA B7 on the surface of T2B7 cells at more than two concentrations in all four replicate assays, receiving a total binding score of 10, 11, 11, 12, and 12)"}]}
{"sequence": "RPRWIDARVY [WNB7 017]", "values": [{"measurement": "affinity to B*07 in vitro compared with previously published B*07 epitope GPGHKARVLA (from HIV-1)", "value": "much greater affinity"}, {"measurement": "Avg. Fold Inc. @ 200", "value": 1.9}, {"measurement": "Avg. MFI 200", "value": 1714.0}, {"measurement": "Binding number (binding score)", "value": 11}, {"measurement": "Binding strength", "value": "strong (stabilized HLA B7 on the surface of T2B7 cells at more than two concentrations in all four replicate assays, receiving a total binding score of 10, 11, 11, 12, and 12)"}]}
{"sequence": "SPHRVPNYNL [WNB7 020]", "values": [{"measurement": "affinity to B*07 in vitro compared with previously published B*07 epitope GPGHKARVLA (from HIV-1)", "value": "much greater affinity"}, {"measurement": "Avg. Fold Inc. @ 200", "value": 2.5}, {"measurement": "Avg. MFI 200", "value": 1607.9}, {"measurement": "Binding number (binding score)", "value": 12}, {"measurement": "Binding strength", "value": "strong (stabilized HLA B7 on the surface of T2B7 cells at more than two concentrations in all four replicate assays, receiving a total binding score of 10, 11, 11, 12, and 12)"}]}
{"sequence": "TPAAPSYTLK [WNB7 009]", "values": [{"measurement": "Avg. Fold Inc. @ 200", "value": 1.5}, {"measurement": "Avg. MFI 200", "value": 954.5}, {"measurement": "Binding number (binding score)", "setting": "listed as WNVB7 0009", "value": 8}, {"measurement": "Binding strength", "setting": "listed as WNVB7 0009", "value": "moderate (stabilized HLA B*07 to a moderate degree (receiving binding scores of 6 to 8))"}]}
{"sequence": "TPGLRCLNLD [WNB7 024]", "values": [{"measurement": "Avg. Fold Inc. @ 200", "value": 1.0}, {"measurement": "Avg. MFI 200", "value": 849.6}, {"measurement": "Binding number (binding score)", "value": 2}, {"measurement": "Binding strength", "value": "non-binder (did not bind (binding score of 2))"}]}
{"sequence": "VPCRGQDELV [WNB7 010]", "values": [{"measurement": "Avg. Fold Inc. @ 200", "value": 1.0}, {"measurement": "Avg. MFI 200", "value": 658.6}, {"measurement": "Binding number (binding score)", "value": 4}, {"measurement": "Binding strength", "value": "weak (weak binders (binding score of 4))"}]}
{"sequence": "VPGTKIAGML [WNB7 018]", "values": [{"measurement": "Avg. Fold Inc. @ 200", "value": 1.7}, {"measurement": "Avg. MFI 200", "value": 1088.4}, {"measurement": "Binding number (binding score)", "setting": "listed as WNVB7 0018", "value": 6}, {"measurement": "Binding strength", "setting": "listed as WNVB7 0018", "value": "moderate (stabilized HLA B*07 to a moderate degree (receiving binding scores of 6 to 8))"}]}
